Results reported in patent publication US20230312753A1 (IMMUNORIZON, published 2023).

Experiments:
[1] = target: T1, NKG2A-CD94-ECD-hFc (human, UniProt P26715 94-233; Q13241 32-179, limits assumed); assay: ELISA on coated NKG2A-CD94-ECD-hFc (FIG. 43C)
T1 construct: extracellular domain; Lot 20200724002, 'provided by CP'; the two-chain layout here is only the reading of the name; also called human NKG2A (recombinant); NKG2A antigen; not shown: human Fc (hFc)
Experimental: (§1) Methods: ELISA binding of Tribody/ProTribody antibody constructs to antigens: Dilute target protein (hCD3epsilon-His (cat # 10977-H08S, supplier Sino Biological); h5T4-His (cat# 19845-H08H, supplier Sino Biological); NKG2A-CD94-ECD-hFc, Lot:20200724002, provided by CP; or NKG2D-ECD-hFc, Lot: 20200413002, provided by CP) into PBS with final concentration of 0.01 µg/mL for hCD3epsilon-His, 0.3 µg/mL for h5T4-His, 1 µg/mL for NKG2A-CD94-ECD-hFc and 0.7 µg/mL for hNKG2D-ECD-hFc respectively and coat 100 µL/well on ELISA plate (cat: 9018, supplier Corning) respectively. Incubate O/N, 4° C. The plates were blocked with 250 µL 1% BSA in PBST for 1 hr at 37° C.Wash 4 times with PBST. All the washes are done using Biotek (Elx 405). All the Tribody set antibodies were diluted to 400 nM and make 4-fold serially dilutions (12 points, including 0 point). Add 100 µL/well diluted antibody constructs solution to plate, incubate for 1 hr at 37° C.Wash 4 times with PBST. Add 100 µL/well anti-human kappa light chain-HRP (1:10000), incubate for 0.5 hr at 37° C. Wash 4 times with PBST. 100 µL/well of TMB substrate was added and incubated at room temperature for 5 min. 100 µL/well of 1N HCl to terminate reaction. Plates were read using ELISA plate reader at 450 nm wavelength (instrunet SpectraMax M5e). Data Analysis was performed using Graphpad prism 5 software by using nonlinear regression (curve fit): log (agonist) vs. response, agonist is antibody concentration (nM) and response is OD value.

[2] = target: T1, NKG2A-CD94-ECD-hFc; assay: ELISA on coated NKG2A-CD94-ECD-hFc (FIG. 43D)
Experimental: as §1

[3] = target: T2, h5T4-His (recombinant human 5T4) (human, UniProt Q13641 32-355, limits assumed); assay: ELISA on coated h5T4-His (FIG. 43B)
T2 construct: Bought protein; also called recombinant 5T4
T2 sequence (looked up): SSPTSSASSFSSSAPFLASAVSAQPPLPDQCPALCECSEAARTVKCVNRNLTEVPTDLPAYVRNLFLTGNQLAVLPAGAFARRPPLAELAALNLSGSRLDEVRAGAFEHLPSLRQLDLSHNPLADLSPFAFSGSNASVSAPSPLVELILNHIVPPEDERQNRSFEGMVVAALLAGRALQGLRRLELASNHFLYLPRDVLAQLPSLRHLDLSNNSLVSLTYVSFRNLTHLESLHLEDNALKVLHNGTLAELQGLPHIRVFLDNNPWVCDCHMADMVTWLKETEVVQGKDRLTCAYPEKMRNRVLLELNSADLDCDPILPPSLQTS
Experimental: as §1

[4] = target: T3, NKG2A/CD94 on CHO cells (CHOK1-NKG2A-CD94) (human, UniProt P26715 1-233; Q13241 1-179, limits assumed); assay: FACS on CHO cells over-expressing human NKG2A (FIG. 45F)
T3 construct: whole, on cells; also called CHO cells over-expressing NKG2A/CD94; CHO cell line over expressing ectopic NKG2A
T3 sequence (P26715 whole entry, chain 1 of 2): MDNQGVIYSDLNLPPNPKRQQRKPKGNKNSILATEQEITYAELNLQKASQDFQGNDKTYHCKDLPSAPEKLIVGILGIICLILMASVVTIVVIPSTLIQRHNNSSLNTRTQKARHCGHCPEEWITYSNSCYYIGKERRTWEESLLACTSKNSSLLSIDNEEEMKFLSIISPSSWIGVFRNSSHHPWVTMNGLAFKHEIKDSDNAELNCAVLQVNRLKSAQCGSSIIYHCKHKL
T3 sequence (Q13241 whole entry, chain 2 of 2): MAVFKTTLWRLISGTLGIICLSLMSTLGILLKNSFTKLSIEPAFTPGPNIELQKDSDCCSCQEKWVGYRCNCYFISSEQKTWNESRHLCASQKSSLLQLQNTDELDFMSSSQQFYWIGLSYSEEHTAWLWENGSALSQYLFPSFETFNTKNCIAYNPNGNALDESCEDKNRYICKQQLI
Experimental: (§2) Then wash the cells 3 times with 170 µL FACS buffer. Re-suspend the cells at 100 µL/well with secondary antibody (goat anti-human Ig Fab-FITC, Cat # 2085-02, Southern biotech) with 1:400 dilution and incubate the plate for 30 min at 4° C. in dark. Centrifuge the plate at 2000 rpm, 4° C. for 5 min and discard supernatant. Then wash the cells 3 times with FACS buffer and analyze the sample with FACS verse. The fluorescence intensity of the staining was measured using flow cytometer (BD, FACSVerse). The geometric mean fluorescence intensity (GMFI; median fluorescence intensity (MFI)) of set antibodies staining was calculated (BD FACSuite software). Dose-response curves were generated and EC50s for thetrispecific variants binding were calculated using GraphPad Prism software.
Results: The expressed trispecific constructs were analyzed for their binding to cells expressing endogenous CD3ε, 5T4 and NKG2A/NKG2D. […] (FIG. 45F).

[5] = target: T3, NKG2A/CD94 on CHO cells …; assay: FACS on CHO cells over-expressing ectopic NKG2A (NKG2A/CD94 by the legend) (FIG. 45E)
Experimental: as §2, with “Suspension cultured cells was harvested directly, and adherent cell were digested using TrypLE Express Enzyme (cat: 12604-013, supplier Life technologies). Centrifuge at 1000 rpm for 5 min and discard the supernatant. Cells are suspended at a concentration of 2×10⁶/mL in FACS buffer (2% FBS in PBS) and add 100 µL/well of cell suspension to the plate (cat #3799, supplier Corning). Centrifuging the plates at 2000 rpm for 5 min and discard the supernatant. Re-suspend the cells in 100 µL/well of Tribody set antibodies (400 nM start, 4-fold dilution, 8 point including 0 point) and incubate the plate for 60 min at 4° C. Centrifuge the plate at 2000 rpm, 4° C. for 5 min and discard supernatant. Then” for “Then”, “Then wash the cells 3 times with FACS buffer and analyze the sample with FACS verse.” left out

[6] = target: T4, NKG2A on NK92 cells (endogenous) (UniProt P26715 1-233, limits assumed); assay: FACS on NK92 cells, endogenous NKG2A (FIG. 45C)
T4 construct: whole, on cells
T4 sequence (P26715 whole entry): as the sequence (P26715 whole entry, chain 1 of 2) above
Experimental: as §2, with “Suspension cultured cells was harvested directly, and adherent cell were digested using TrypLE Express Enzyme (cat: 12604-013, supplier Life technologies). Centrifuge at 1000 rpm for 5 min and discard the supernatant. Cells are suspended at a concentration of 2×10⁶/mL in FACS buffer (2% FBS in PBS) and add 100 µL/well of cell suspension to the plate (cat #3799, supplier Corning). Centrifuging the plates at 2000 rpm for 5 min and discard the supernatant. Re-suspend the cells in 100 µL/well of Tribody set antibodies (400 nM start, 4-fold dilution, 8 point including 0 point) and incubate the plate for 60 min at 4° C. Centrifuge the plate at 2000 rpm, 4° C. for 5 min and discard supernatant. Then” for “Then”, “Then wash the cells 3 times with FACS buffer and analyze the sample with FACS verse.” left out

T1 sequence (P26715 94-233 limits assumed, chain 1 of 2): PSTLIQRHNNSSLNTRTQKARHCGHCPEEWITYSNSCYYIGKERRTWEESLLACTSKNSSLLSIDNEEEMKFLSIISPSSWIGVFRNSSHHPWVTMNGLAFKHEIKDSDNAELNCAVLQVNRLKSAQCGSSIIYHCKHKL
T1 sequence (Q13241 32-179 limits assumed, chain 2 of 2): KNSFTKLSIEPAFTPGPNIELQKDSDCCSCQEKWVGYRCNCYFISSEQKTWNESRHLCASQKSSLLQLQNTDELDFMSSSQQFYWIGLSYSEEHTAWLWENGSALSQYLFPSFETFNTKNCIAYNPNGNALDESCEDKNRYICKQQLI

B1: IM-1062 Tribody (other)
heavy: GGSGGSEVQLVESGGGLVQPGGSLRLSCAASGFTFNTYAMNWVRQAPGKGLEWVARIRSKYNNYATYYADSVKDRFTISRDDSKNTLYLQMNSLRAEDTAVYYCVRHGNFGNSYVSWFAYWGQGTMVTVSSASTKGPSVFPLAPSSKSTSGGTAALGCLVKDYFPEPVTVSWNSGALTSGVHTFPAVLQSSGLYSLSSVVTVPSSSLGTQTYICNVNHKPSNTKVDKRVEPKSCPPCGGGGSDIQMTQSPSSLSASVGDRVTITCRASENIYSYLAWYQQKPGKAPKLLIYNAKTLAEGVPSRFSGSGSGTDFTLTISSLQPEDFATYYCQHHYGTPRTFGGGTKVEIKGGGGSGGGGSGGGGSGGGGSQVQLVQSGAEVKKPGASVKVSCKASGYTFTSYWMNWVRQAPGQGLEWMGRIDPYDSETHYAQKLQGRVTMTTDTSTSTAYMELRSLRSDDTAVYYCARGGYDFDVGTLYWFFDVWGQGTTVTVSS
light: GGSGGSQAVVTQEPSLTVSPGGTVTLTCRSSTGAVTTSNYANWVQQKPGQAPRGLIGGTNKRAPGTPARFSGSLLGGKAALTLSGVQPEDEAEYYCALWYSNLWVFGGGTKLTVLGQPKAAPSVTLFPPSSEELQANKATLVCLISDFYPGAVTVAWKADSSPVKAGVETTTPSKQSNNKYAASSYLSLTPEQWKSHRSYSCQVTHEGSTVEKTVAPTECPPCSGGGSDIQMTQSPSSLSASVGDRVTITCRASQGISNYLAWFQQKPGKAPKSLIYRANRLQSGVPSRFSGSGSGTDFTLTISSLQPEDVATYYCLQYDDFPWTFGQGTKLEIKGGGGSGGGGSGGGGSGGGGSQVQLVQSGAEVKKPGASVKVSCKASGYTFTSFWMHWVRQAPGQGLEWMGRIDPNRGGTEYNEKAKSRVTMTADKSTSTAYMELSSLRSEDTAVYYCAGGNPYYPMDYWGQGTTVTVSS
notes: Tri-specific antibody (Tribody): anti-CD3 epsilon Fab with an anti-5T4 scFv and an anti-NKG2A scFv, no regulatory domain; also called the Tribody format
Which results are given for B1?
EC50 [1]: 0.0044 µM; EC50 [2]: 0.0057 µM; EC50 [3]: 0.045 µM; EC50 [4]: 0.016 µM; EC50 [5]: 0.029 µM; EC50 [6]: 0.0065 µM
